Tests used:
[1] = molecular target: T1, recombinant human LILRB1-His (human, UniProt Q8NHL6 24-458); assay: MSD ELISA, coated antigen, transfection supernatant
T1 construct: Bought protein; also called LILRB1 protein
Experimental: (§1) To confirm binding to human LILRB1 and human LILRB2, transfection supernatants (obtained in Example 2) were evaluated for binding by ELISA. The conditioned media from these transient transfections were assayed for human IgG concentration by AlphaLISA® immunoassay (PerkinElmer, No. AL310C) (Table 4). A plate-based MSD ELISA was performed in which human LILRB1-His or LILRB2-His was immobilized, and binding of transfection supernatants of humanized mAb variants was detected via an anti-human IgG Sulfo-tag-labeled secondary antibody. The IgG1 version of the parental rabbit/human chimera (designated B21A1) transfection served as the benchmark EC₅₀ positive control.
(§2) Recombinant human and cynomolgus LILRB1 proteins (R&D Systems, No. 8989-T2-050; ACROBiosystems, No. CDJ-C52H3) and recombinant human and cynomolgus LILRB2 proteins (ACROBiosystems, No. LI2-H5220; No. L12-C52H3) were diluted in PBS to 4 μg/mL and added to a multi-array 384-well high-binding plates (MSD, No. L21XA4) at 10 μL/well and incubated at 4° C. overnight. The plates were washed several times with Wash Buffer (0.05% Tween® 20 in PBS), using a microplate washer and then blocked with 70 μL/well of 5% BSA in PBS for 1 hour (h) at room temperature (RT) with shaking at 700 rpm. After blocking, 20 μL/well of anti-LILRB2/LILRB1 antibodies or isotype control were added to the plates, and the plates were sealed and incubated for 2 h at RT with shaking at 700 rpm. After primary antibody binding, plates were washed five times with 70 μL/well of Wash Buffer (0.05% Tween® 20 in PBS) using a microplate washer. Secondary detection antibody (SULFO-TAG™-labeled goat anti-human IgG antibody (MSD, No. R32AJ-1)) was diluted to 4 μg/mL in assay diluent (1% BSA in PBS) and 10 μL/well was added to plates and incubated at RT protected from light for 1 h, with shaking at 700 rpm. Following incubation, plates were washed five times with Wash Buffer, using a microplate washer. After removal of the final wash, 35 μL/well of MSD Gold Read Buffer B (MSD, No. R60AM-4) was added to all wells using a Multidrop combo washer/dispenser, and plates were read using MESO Sector 600MM instrument (MSD) within 5 minutes (min) after addition of Read Buffer. Signals as counts per minute (cpm) were recorded.

[2] = molecular target: T2, recombinant human LILRB2-His (human, UniProt Q8N423 22-461, limits assumed); assay: as above
T2 construct: Bought protein; also called LILRB2 protein
T2 sequence (Q8N423 22-461 limits assumed): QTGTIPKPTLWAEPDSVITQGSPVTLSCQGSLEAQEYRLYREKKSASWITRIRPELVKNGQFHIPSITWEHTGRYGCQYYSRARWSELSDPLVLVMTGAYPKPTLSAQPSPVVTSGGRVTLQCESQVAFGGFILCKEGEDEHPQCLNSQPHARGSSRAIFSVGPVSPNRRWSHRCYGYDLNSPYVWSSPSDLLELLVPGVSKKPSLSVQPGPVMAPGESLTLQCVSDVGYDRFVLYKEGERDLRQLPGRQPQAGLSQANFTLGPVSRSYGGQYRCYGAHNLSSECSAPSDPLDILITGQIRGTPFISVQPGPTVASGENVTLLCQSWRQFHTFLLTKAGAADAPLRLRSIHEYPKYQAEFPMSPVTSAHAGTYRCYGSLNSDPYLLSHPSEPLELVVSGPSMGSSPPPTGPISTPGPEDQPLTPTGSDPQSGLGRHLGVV
Experimental: as §1, §2

T1 sequence (Q8NHL6 24-458 limits assumed): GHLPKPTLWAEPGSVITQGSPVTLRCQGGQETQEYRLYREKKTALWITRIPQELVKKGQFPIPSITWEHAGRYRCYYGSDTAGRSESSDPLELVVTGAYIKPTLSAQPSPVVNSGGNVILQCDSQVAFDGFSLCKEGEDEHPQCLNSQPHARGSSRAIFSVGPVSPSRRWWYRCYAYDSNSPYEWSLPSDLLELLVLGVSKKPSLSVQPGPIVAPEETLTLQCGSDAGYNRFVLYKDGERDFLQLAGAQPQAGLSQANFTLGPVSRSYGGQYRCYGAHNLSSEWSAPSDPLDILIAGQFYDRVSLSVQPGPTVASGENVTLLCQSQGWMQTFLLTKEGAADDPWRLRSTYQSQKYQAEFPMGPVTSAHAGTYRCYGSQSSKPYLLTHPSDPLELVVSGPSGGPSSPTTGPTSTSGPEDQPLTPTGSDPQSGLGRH

EC50 [1] [ng/mL] | EC50 [2] [ng/mL] | Binder
3.12 | 1.08 | B21H4-42 (antibody, human IgG4 S228P, kappa, humanized IgG4/kappa, VH4+VL2; transfection supernatant) heavy: not shown light: DIQMTQSPSSLSASVGDRVTITCQASGNIYSFLAWYQQKPGKVPKLLIYTASNLETGVPSRFSGSGSGTDYTLTISSLQSEDAATYYCLGGLYSSDVSYAFGGGTKVVIKRTVAAPSVFIFPPSDEQLKSGTASVVCLLNNFYPREAKVQWKVDNALQSGNSQESVTEQDSKDSTYSLSSTLTLSKADYEKHKVYACEVTHQGLSSPVTKSFNRGEC
3.04 | 0.63 | B21H4-43 (antibody, human IgG4 S228P, kappa, humanized IgG4/kappa, VH4+VL3; transfection supernatant) heavy: not shown light: DIVMTQSPSSVSASVGDRVTITCQASGNIYSFLAWYQQKPGKAPKLLIYTASNLETGVPSRFSGSGSGTDFTLTISSLQPEDFATYYCLGGLYSSDVSYAFGGGTKVVIKRTVAAPSVFIFPPSDEQLKSGTASVVCLLNNFYPREAKVQWKVDNALQSGNSQESVTEQDSKDSTYSLSSTLTLSKADYEKHKVYACEVTHQGLSSPVTKSFNRGEC
2.66 | 0.72 | B21H4-33 (antibody, human IgG4 S228P, kappa, humanized IgG4/kappa, VH3+VL3; transfection supernatant) heavy: not shown light: DIVMTQSPSSVSASVGDRVTITCQASGNIYSFLAWYQQKPGKAPKLLIYTASNLETGVPSRFSGSGSGTDFTLTISSLQPEDFATYYCLGGLYSSDVSYAFGGGTKVVIKRTVAAPSVFIFPPSDEQLKSGTASVVCLLNNFYPREAKVQWKVDNALQSGNSQESVTEQDSKDSTYSLSSTLTLSKADYEKHKVYACEVTHQGLSSPVTKSFNRGEC
2.92 | 1.57 | B21H4-55 (antibody, human IgG4 S228P, kappa, humanized IgG4/kappa, VH5+VL5; transfection supernatant) heavy: not shown light: DIQMTQTPSTVEASVGGTVTITCQASGNIYSFLAWYQQKPGQPPKLLIYTASNLETGVPSRFSGSGSGTEYTLTISGLQSDDAATYYCLGGLYSSDVSYAFGGGTEVVVKRTVAAPSVFIFPPSDEQLKSGTASVVCLLNNFYPREAKVQWKVDNALQSGNSQESVTEQDSKDSTYSLSSTLTLSKADYEKHKVYACEVTHQGLSSPVTKSFNRGEC
5.71 | 1.38 | B21H4-41 (antibody, human IgG4 S228P, kappa, V domains shown, humanized IgG4/kappa, VH4+VL1; transfection supernatant) VH: EVQLVESGGGLVQPGGSLRLSCAASGFSLNTYAMTWVRQAPGKGLEWISIIVASGGTYYASWAKGRFTISRDNAKSSVYLQLTSLTTEDTAVYYCARGGMGSDWGESLDAFDPWGQGTMVTVSS VL: DIQMTQSPSTLSASVGDRVTITCQASGNIYSFLAWYQQKPGKAPKLLIYTASNLETGVPSRFSGSGSGTEYTLTISSLQPDDFATYYCLGGLYSSDVSYAFGPGTKVEIKR
3.23 | 1.63 | B21H4-44 (antibody, human IgG4 S228P, kappa, V domains shown, humanized IgG4/kappa, VH4+VL4; transfection supernatant) VH: EVQLVESGGGLVQPGGSLRLSCAASGFSLNTYAMTWVRQAPGKGLEWISIIVASGGTYYASWAKGRFTISRDNAKSSVYLQLTSLTTEDTAVYYCARGGMGSDWGESLDAFDPWGQGTMVTVSS VL: DVVMTQSPSTVSASVGDRVTLTCQASGNIYSFLAWYQQKPGQPPKLLIYTASNLETGVPDRFSGSGSGTDYTLTISSLQADDFATYYCLGGLYSSDVSYAFGQGTKVEIKR

The next lines start with the binder.

Binder | EC50 [1] [ng/mL] | EC50 [2] [ng/mL]
B21H4-11 (antibody, human IgG4 S228P, kappa, humanized IgG4/kappa, VH1+VL1; transfection supernatant) heavy: not shown light: DIQMTQSPSTLSASVGDRVTITCQASGNIYSFLAWYQQKPGKAPKLLIYTASNLETGVPSRFSGSGSGTEYTLTISSLQPDDFATYYCLGGLYSSDVSYAFGPGTKVEIKRTVAAPSVFIFPPSDEQLKSGTASVVCLLNNFYPREAKVQWKVDNALQSGNSQESVTEQDSKDSTYSLSSTLTLSKADYEKHKVYACEVTHQGLSSPVTKSFNRGEC | 2.24 | 1.45
B21H4-12 (antibody, human IgG4 S228P, kappa, humanized IgG4/kappa, VH1+VL2; transfection supernatant) heavy: not shown light: DIQMTQSPSSLSASVGDRVTITCQASGNIYSFLAWYQQKPGKVPKLLIYTASNLETGVPSRFSGSGSGTDYTLTISSLQSEDAATYYCLGGLYSSDVSYAFGGGTKVVIKRTVAAPSVFIFPPSDEQLKSGTASVVCLLNNFYPREAKVQWKVDNALQSGNSQESVTEQDSKDSTYSLSSTLTLSKADYEKHKVYACEVTHQGLSSPVTKSFNRGEC | 2.41 | 0.74
B21H4-23 (antibody, human IgG4 S228P, kappa, humanized IgG4/kappa, VH2+VL3; transfection supernatant) heavy: not shown light: DIVMTQSPSSVSASVGDRVTITCQASGNIYSFLAWYQQKPGKAPKLLIYTASNLETGVPSRFSGSGSGTDFTLTISSLQPEDFATYYCLGGLYSSDVSYAFGGGTKVVIKRTVAAPSVFIFPPSDEQLKSGTASVVCLLNNFYPREAKVQWKVDNALQSGNSQESVTEQDSKDSTYSLSSTLTLSKADYEKHKVYACEVTHQGLSSPVTKSFNRGEC | 2.85 | 1.08
B21H4-32 (antibody, human IgG4 S228P, kappa, humanized IgG4/kappa, VH3+VL2; transfection supernatant) heavy: not shown light: DIQMTQSPSSLSASVGDRVTITCQASGNIYSFLAWYQQKPGKVPKLLIYTASNLETGVPSRFSGSGSGTDYTLTISSLQSEDAATYYCLGGLYSSDVSYAFGGGTKVVIKRTVAAPSVFIFPPSDEQLKSGTASVVCLLNNFYPREAKVQWKVDNALQSGNSQESVTEQDSKDSTYSLSSTLTLSKADYEKHKVYACEVTHQGLSSPVTKSFNRGEC | 2.46 | 0.95
B21H4-24 (antibody, human IgG4 S228P, kappa, humanized IgG4/kappa, VH2+VL4; transfection supernatant) heavy: not shown light: DVVMTQSPSTVSASVGDRVTLTCQASGNIYSFLAWYQQKPGQPPKLLIYTASNLETGVPDRFSGSGSGTDYTLTISSLQADDFATYYCLGGLYSSDVSYAFGQGTKVEIKRTVAAPSVFIFPPSDEQLKSGTASVVCLLNNFYPREAKVQWKVDNALQSGNSQESVTEQDSKDSTYSLSSTLTLSKADYEKHKVYACEVTHQGLSSPVTKSFNRGEC | 1.95 | 0.84
B21H4-21 (antibody, human IgG4 S228P, kappa, V domains shown, humanized IgG4/kappa, VH2+VL1; transfection supernatant) VH: EVQLLESGGGLVQPGGSLRLSCAASGFSLNTYAMTWVRQAPGKGLEWVSIIVASGGTYYASWAKGRFTISRDNSKNTLYLQMNSLTVEDTAVYFCARGGMGSDWGESLDAFDPWGQGTLVTVSS VL: DIQMTQSPSTLSASVGDRVTITCQASGNIYSFLAWYQQKPGKAPKLLIYTASNLETGVPSRFSGSGSGTEYTLTISSLQPDDFATYYCLGGLYSSDVSYAFGPGTKVEIKR | 2.32 | 1.93
B21H4-22 (antibody, human IgG4 S228P, kappa, humanized IgG4/kappa, VH2+VL2; transfection supernatant) heavy: not shown light: DIQMTQSPSSLSASVGDRVTITCQASGNIYSFLAWYQQKPGKVPKLLIYTASNLETGVPSRFSGSGSGTDYTLTISSLQSEDAATYYCLGGLYSSDVSYAFGGGTKVVIKRTVAAPSVFIFPPSDEQLKSGTASVVCLLNNFYPREAKVQWKVDNALQSGNSQESVTEQDSKDSTYSLSSTLTLSKADYEKHKVYACEVTHQGLSSPVTKSFNRGEC | 1.85 | 1.06
B21H4-35 (antibody, human IgG4 S228P, kappa, V domains shown, humanized IgG4/kappa, VH3+VL5; transfection supernatant) VH: EVQLVESGGDLAQPGGSLRLSCAVSGFSLNTYAMTWVRQAPGKGLEWVSIIVASGGTYYASWAKGRFTISRDNSKNTVYLQMTSLRAEDTALYFCARGGMGSDWGESLDAFDPWGQGTLVTVSS VL: DIQMTQTPSTVEASVGGTVTITCQASGNIYSFLAWYQQKPGQPPKLLIYTASNLETGVPSRFSGSGSGTEYTLTISGLQSDDAATYYCLGGLYSSDVSYAFGGGTEVVVKR | 3.91 | 1.73
B21H4-31 (antibody, human IgG4 S228P, kappa, V domains shown, humanized IgG4/kappa, VH3+VL1; transfection supernatant) VH: EVQLVESGGDLAQPGGSLRLSCAVSGFSLNTYAMTWVRQAPGKGLEWVSIIVASGGTYYASWAKGRFTISRDNSKNTVYLQMTSLRAEDTALYFCARGGMGSDWGESLDAFDPWGQGTLVTVSS VL: DIQMTQSPSTLSASVGDRVTITCQASGNIYSFLAWYQQKPGKAPKLLIYTASNLETGVPSRFSGSGSGTEYTLTISSLQPDDFATYYCLGGLYSSDVSYAFGPGTKVEIKR | 3.58 | 2.02
B21H4-25 (antibody, human IgG4 S228P, kappa, humanized IgG4/kappa, VH2+VL5; transfection supernatant) heavy: not shown light: DIQMTQTPSTVEASVGGTVTITCQASGNIYSFLAWYQQKPGQPPKLLIYTASNLETGVPSRFSGSGSGTEYTLTISGLQSDDAATYYCLGGLYSSDVSYAFGGGTEVVVKRTVAAPSVFIFPPSDEQLKSGTASVVCLLNNFYPREAKVQWKVDNALQSGNSQESVTEQDSKDSTYSLSSTLTLSKADYEKHKVYACEVTHQGLSSPVTKSFNRGEC | 3.95 | 1.42
B21H4-15 (antibody, human IgG4 S228P, kappa, humanized IgG4/kappa, VH1+VL5; transfection supernatant) heavy: not shown light: DIQMTQTPSTVEASVGGTVTITCQASGNIYSFLAWYQQKPGQPPKLLIYTASNLETGVPSRFSGSGSGTEYTLTISGLQSDDAATYYCLGGLYSSDVSYAFGGGTEVVVKRTVAAPSVFIFPPSDEQLKSGTASVVCLLNNFYPREAKVQWKVDNALQSGNSQESVTEQDSKDSTYSLSSTLTLSKADYEKHKVYACEVTHQGLSSPVTKSFNRGEC | 3.1 | 1.25

Reference: patent US20250002577A1 (ONCORESPONSE, published 2025)
